Assay results taken from patent US9284543B2, “Neutral active soluble truncated PH20 polypeptides and uses thereof” (Halozyme, Inc., priority 2008, dated 2016).

B1: SPAM1-DAVD: C-terminally truncated human PH20, precursor 456 aa (SEQ ID NO:40), mature 421 aa (SEQ ID NO:92) (protein, listed as Homo sapiens)
chain 1: MGVLKFKHIFFRSFVKSSGVSQIVFTFLLIPCCLTLNFRAPPVIPNVPFLWAWNAPSEFCLGKFDEPLDMSLFSFIGSPRINATGQGVTIFYVDRLGYYPYIDSITGVTVNGGIPQKISLQDHLDKAKKDITFYMPVDNLGMAVIDWEEWRPTWARNWKPKDVYKNRSIELVQQQNVQLSLTEATEKAKQEFEKAGKDFLVETIKLGKLLRPNHLWGYYLFPDCYNHHYKKPGYNGSCFNVEIKRNDDLSWLWNESTALYPSIYLNTQQSPVAATLYVRNRVREAIRVSKIPDAKSPLPVFAYTRIVFTDQVLKFLSQDELVYTFGETVALGASGIVIWGTLSIMRSMKSCLLLDNYMETILNPYIINVTLAAKMCSQVLCQEQGVCIRKNWNSSDYLHLNPDNFAIQLEKGGKFTVRGKPTLEDLEQFSEKFYCSCYSTLSCKEKADVKDTDAVD
chain 2: LNFRAPPVIPNVPFLWAWNAPSEFCLGKFDEPLDMSLFSFIGSPRINATGQGVTIFYVDRLGYYPYIDSITGVTVNGGIPQKISLQDHLDKAKKDITFYMPVDNLGMAVIDWEEWRPTWARNWKPKDVYKNRSIELVQQQNVQLSLTEATEKAKQEFEKAGKDFLVETIKLGKLLRPNHLWGYYLFPDCYNHHYKKPGYNGSCFNVEIKRNDDLSWLWNESTALYPSIYLNTQQSPVAATLYVRNRVREAIRVSKIPDAKSPLPVFAYTRIVFTDQVLKFLSQDELVYTFGETVALGASGIVIWGTLSIMRSMKSCLLLDNYMETILNPYIINVTLAAKMCSQVLCQEQGVCIRKNWNSSDYLHLNPDNFAIQLEKGGKFTVRGKPTLEDLEQFSEKFYCSCYSTLSCKEKADVKDTDAVD
modifications: HuPH20 precursor 1-456; Mature HuPH20 36-456
B2: SPAM1-VDVC: C-terminally truncated human PH20, precursor 458 aa (SEQ ID NO:39), mature 423 aa (SEQ ID NO:91) (protein, listed as Homo sapiens)
chain 1: MGVLKFKHIFFRSFVKSSGVSQIVFTFLLIPCCLTLNFRAPPVIPNVPFLWAWNAPSEFCLGKFDEPLDMSLFSFIGSPRINATGQGVTIFYVDRLGYYPYIDSITGVTVNGGIPQKISLQDHLDKAKKDITFYMPVDNLGMAVIDWEEWRPTWARNWKPKDVYKNRSIELVQQQNVQLSLTEATEKAKQEFEKAGKDFLVETIKLGKLLRPNHLWGYYLFPDCYNHHYKKPGYNGSCFNVEIKRNDDLSWLWNESTALYPSIYLNTQQSPVAATLYVRNRVREAIRVSKIPDAKSPLPVFAYTRIVFTDQVLKFLSQDELVYTFGETVALGASGIVIWGTLSIMRSMKSCLLLDNYMETILNPYIINVTLAAKMCSQVLCQEQGVCIRKNWNSSDYLHLNPDNFAIQLEKGGKFTVRGKPTLEDLEQFSEKFYCSCYSTLSCKEKADVKDTDAVDVC
chain 2: LNFRAPPVIPNVPFLWAWNAPSEFCLGKFDEPLDMSLFSFIGSPRINATGQGVTIFYVDRLGYYPYIDSITGVTVNGGIPQKISLQDHLDKAKKDITFYMPVDNLGMAVIDWEEWRPTWARNWKPKDVYKNRSIELVQQQNVQLSLTEATEKAKQEFEKAGKDFLVETIKLGKLLRPNHLWGYYLFPDCYNHHYKKPGYNGSCFNVEIKRNDDLSWLWNESTALYPSIYLNTQQSPVAATLYVRNRVREAIRVSKIPDAKSPLPVFAYTRIVFTDQVLKFLSQDELVYTFGETVALGASGIVIWGTLSIMRSMKSCLLLDNYMETILNPYIINVTLAAKMCSQVLCQEQGVCIRKNWNSSDYLHLNPDNFAIQLEKGGKFTVRGKPTLEDLEQFSEKFYCSCYSTLSCKEKADVKDTDAVDVC
modifications: HuPH20 precursor 1-458; Mature HuPH20 36-458
B3: SPAM1-DGVC: C-terminally truncated human PH20, precursor 464 aa (SEQ ID NO:36), mature 429 aa (SEQ ID NO:88) (protein, listed as Homo sapiens)
chain 1: MGVLKFKHIFFRSFVKSSGVSQIVFTFLLIPCCLTLNFRAPPVIPNVPFLWAWNAPSEFCLGKFDEPLDMSLFSFIGSPRINATGQGVTIFYVDRLGYYPYIDSITGVTVNGGIPQKISLQDHLDKAKKDITFYMPVDNLGMAVIDWEEWRPTWARNWKPKDVYKNRSIELVQQQNVQLSLTEATEKAKQEFEKAGKDFLVETIKLGKLLRPNHLWGYYLFPDCYNHHYKKPGYNGSCFNVEIKRNDDLSWLWNESTALYPSIYLNTQQSPVAATLYVRNRVREAIRVSKIPDAKSPLPVFAYTRIVFTDQVLKFLSQDELVYTFGETVALGASGIVIWGTLSIMRSMKSCLLLDNYMETILNPYIINVTLAAKMCSQVLCQEQGVCIRKNWNSSDYLHLNPDNFAIQLEKGGKFTVRGKPTLEDLEQFSEKFYCSCYSTLSCKEKADVKDTDAVDVCIADGVC
chain 2: LNFRAPPVIPNVPFLWAWNAPSEFCLGKFDEPLDMSLFSFIGSPRINATGQGVTIFYVDRLGYYPYIDSITGVTVNGGIPQKISLQDHLDKAKKDITFYMPVDNLGMAVIDWEEWRPTWARNWKPKDVYKNRSIELVQQQNVQLSLTEATEKAKQEFEKAGKDFLVETIKLGKLLRPNHLWGYYLFPDCYNHHYKKPGYNGSCFNVEIKRNDDLSWLWNESTALYPSIYLNTQQSPVAATLYVRNRVREAIRVSKIPDAKSPLPVFAYTRIVFTDQVLKFLSQDELVYTFGETVALGASGIVIWGTLSIMRSMKSCLLLDNYMETILNPYIINVTLAAKMCSQVLCQEQGVCIRKNWNSSDYLHLNPDNFAIQLEKGGKFTVRGKPTLEDLEQFSEKFYCSCYSTLSCKEKADVKDTDAVDVCIADGVC
modifications: HuPH20 precursor 1-464; Mature HuPH20 36-464
B4: SPAM1-IADG: C-terminally truncated human PH20, precursor 462 aa (SEQ ID NO:37), mature 427 aa (SEQ ID NO:89) (protein, listed as Homo sapiens)
chain 1: MGVLKFKHIFFRSFVKSSGVSQIVFTFLLIPCCLTLNFRAPPVIPNVPFLWAWNAPSEFCLGKFDEPLDMSLFSFIGSPRINATGQGVTIFYVDRLGYYPYIDSITGVTVNGGIPQKISLQDHLDKAKKDITFYMPVDNLGMAVIDWEEWRPTWARNWKPKDVYKNRSIELVQQQNVQLSLTEATEKAKQEFEKAGKDFLVETIKLGKLLRPNHLWGYYLFPDCYNHHYKKPGYNGSCFNVEIKRNDDLSWLWNESTALYPSIYLNTQQSPVAATLYVRNRVREAIRVSKIPDAKSPLPVFAYTRIVFTDQVLKFLSQDELVYTFGETVALGASGIVIWGTLSIMRSMKSCLLLDNYMETILNPYIINVTLAAKMCSQVLCQEQGVCIRKNWNSSDYLHLNPDNFAIQLEKGGKFTVRGKPTLEDLEQFSEKFYCSCYSTLSCKEKADVKDTDAVDVCIADG
chain 2: LNFRAPPVIPNVPFLWAWNAPSEFCLGKFDEPLDMSLFSFIGSPRINATGQGVTIFYVDRLGYYPYIDSITGVTVNGGIPQKISLQDHLDKAKKDITFYMPVDNLGMAVIDWEEWRPTWARNWKPKDVYKNRSIELVQQQNVQLSLTEATEKAKQEFEKAGKDFLVETIKLGKLLRPNHLWGYYLFPDCYNHHYKKPGYNGSCFNVEIKRNDDLSWLWNESTALYPSIYLNTQQSPVAATLYVRNRVREAIRVSKIPDAKSPLPVFAYTRIVFTDQVLKFLSQDELVYTFGETVALGASGIVIWGTLSIMRSMKSCLLLDNYMETILNPYIINVTLAAKMCSQVLCQEQGVCIRKNWNSSDYLHLNPDNFAIQLEKGGKFTVRGKPTLEDLEQFSEKFYCSCYSTLSCKEKADVKDTDAVDVCIADG
modifications: HuPH20 precursor 1-462; Mature HuPH20 36-462
B5: SPAM1-VCIA: C-terminally truncated human PH20, precursor 460 aa (SEQ ID NO:38), mature 425 aa (SEQ ID NO:90) (protein, listed as Homo sapiens)
chain 1: MGVLKFKHIFFRSFVKSSGVSQIVFTFLLIPCCLTLNFRAPPVIPNVPFLWAWNAPSEFCLGKFDEPLDMSLFSFIGSPRINATGQGVTIFYVDRLGYYPYIDSITGVTVNGGIPQKISLQDHLDKAKKDITFYMPVDNLGMAVIDWEEWRPTWARNWKPKDVYKNRSIELVQQQNVQLSLTEATEKAKQEFEKAGKDFLVETIKLGKLLRPNHLWGYYLFPDCYNHHYKKPGYNGSCFNVEIKRNDDLSWLWNESTALYPSIYLNTQQSPVAATLYVRNRVREAIRVSKIPDAKSPLPVFAYTRIVFTDQVLKFLSQDELVYTFGETVALGASGIVIWGTLSIMRSMKSCLLLDNYMETILNPYIINVTLAAKMCSQVLCQEQGVCIRKNWNSSDYLHLNPDNFAIQLEKGGKFTVRGKPTLEDLEQFSEKFYCSCYSTLSCKEKADVKDTDAVDVCIA
chain 2: LNFRAPPVIPNVPFLWAWNAPSEFCLGKFDEPLDMSLFSFIGSPRINATGQGVTIFYVDRLGYYPYIDSITGVTVNGGIPQKISLQDHLDKAKKDITFYMPVDNLGMAVIDWEEWRPTWARNWKPKDVYKNRSIELVQQQNVQLSLTEATEKAKQEFEKAGKDFLVETIKLGKLLRPNHLWGYYLFPDCYNHHYKKPGYNGSCFNVEIKRNDDLSWLWNESTALYPSIYLNTQQSPVAATLYVRNRVREAIRVSKIPDAKSPLPVFAYTRIVFTDQVLKFLSQDELVYTFGETVALGASGIVIWGTLSIMRSMKSCLLLDNYMETILNPYIINVTLAAKMCSQVLCQEQGVCIRKNWNSSDYLHLNPDNFAIQLEKGGKFTVRGKPTLEDLEQFSEKFYCSCYSTLSCKEKADVKDTDAVDVCIA
modifications: HuPH20 precursor 1-460; Mature HuPH20 36-460

Key:
CHO-S cells = test: Western blot analysis of PH20 expression in media and cells after transient expression; assay type: cell-based, Chinese Hamster; settings: media versus cells
In short: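 CHO-S cells were transiently transfected with mutant PH20-HZ24 plasmids using GeneJuice and expressed for 48-72 h at 37 °C, 5% CO2. Media and cells were harvested separately, with PI-PLC treatment used to release GPI-anchored protein. Non-reduced samples were blotted with rabbit anti-PH20 (0.5 μg/mL), and a band near 66 kDa was scored as PH20.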

[1] = Microtiter hyaluronidase activity assay with biotinylated-hyaluronic acid; assay type: biochemical; settings: Table 6, 72 hour post transfection supernatant

Row | Molecule | Expressed in Media (CHO-S cells) | pH 5.5 Activity [1] | pH 7.4 Activity [1]
1 | B1 | YES | 0.0675 Units/ml | 0 Units/ml
2 | B2 | YES | 0.0585 Units/ml | 0.0495 Units/ml
3 | B3 | YES | 0.045 Units/ml | 0 Units/ml
4 | B4 | YES | 0.00225 Units/ml | 0 Units/ml
5 | B5 | YES | 0.0135 Units/ml | 0 Units/ml
